Results from patent US20170355769A1 (AbbVie / Abbott, published 2017).

Assays:
Human full length B7-H3 [1] = target: T1, Human full length B7-H3 (human, UniProt Q5ZPR3 29-534); test: FACS
T1 construct: On 3T12 fibroblasts expressing full length human B7-H3 or on NCI-H1650 cells; signal peptide residues 1-28 stated; also called huB7-H3; CD276
T1 sequence: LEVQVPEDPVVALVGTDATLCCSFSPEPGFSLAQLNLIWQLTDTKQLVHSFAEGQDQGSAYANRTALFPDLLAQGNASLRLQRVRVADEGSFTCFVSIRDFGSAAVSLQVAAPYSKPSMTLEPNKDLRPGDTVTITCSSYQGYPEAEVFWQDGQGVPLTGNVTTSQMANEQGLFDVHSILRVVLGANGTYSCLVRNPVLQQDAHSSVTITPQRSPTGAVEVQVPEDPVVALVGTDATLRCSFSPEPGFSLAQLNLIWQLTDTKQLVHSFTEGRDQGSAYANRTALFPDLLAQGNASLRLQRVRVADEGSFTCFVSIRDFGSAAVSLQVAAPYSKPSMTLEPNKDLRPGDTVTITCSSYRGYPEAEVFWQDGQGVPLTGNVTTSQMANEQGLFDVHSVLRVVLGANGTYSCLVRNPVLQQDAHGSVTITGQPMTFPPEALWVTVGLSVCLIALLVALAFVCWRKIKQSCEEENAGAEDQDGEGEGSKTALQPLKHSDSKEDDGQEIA

[2] = target: T2, hB7-H3 (ELISA antigen of Tables 17 and 20) (human, UniProt Q5ZPR3 29-466, limits assumed); test: ELISA
T2 sequence: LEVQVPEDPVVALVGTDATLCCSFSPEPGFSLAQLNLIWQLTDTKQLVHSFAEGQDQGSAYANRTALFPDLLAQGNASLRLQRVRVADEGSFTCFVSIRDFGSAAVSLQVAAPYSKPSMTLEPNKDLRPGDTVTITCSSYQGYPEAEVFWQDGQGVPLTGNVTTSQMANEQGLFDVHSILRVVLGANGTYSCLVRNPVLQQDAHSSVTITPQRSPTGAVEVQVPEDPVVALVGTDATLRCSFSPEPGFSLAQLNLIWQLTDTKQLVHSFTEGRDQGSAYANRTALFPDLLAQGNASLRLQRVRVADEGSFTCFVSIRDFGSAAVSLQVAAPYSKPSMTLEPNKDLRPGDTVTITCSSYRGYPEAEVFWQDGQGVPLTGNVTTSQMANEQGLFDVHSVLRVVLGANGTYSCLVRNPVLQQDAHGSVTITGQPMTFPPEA

Human full length B7-H3 [3] = target: T1, Human full length B7-H3; test: cell-based or functional assay
Human full length B7-H3 [4] = target: T1, Human full length B7-H3; test: FACS, 3T12 transfectants
[5] = target: T3, Cynomolgous B7-H3 on cells (cynomolgus); test: FACS, 3T12 transfectants
T3 construct: whole, on cells; also called cyB7-H3; cyno B7-H3

Human full length B7-H3 [6] = target: T1, Human full length B7-H3; test: FACS (Example 6 method)
Description: Cells were harvested from flasks when approximately 80% confluent using Gibco® Cell Dissociation Buffer. Cells were washed once in PBS/1% FBS (FACS buffer) then resuspended at 2.5×10⁶ cells/mL in FACS buffer. 100 μL of cells/well were added to a round bottom 96-well plate. 10 μL of a 10× concentration of mAb/ADC (final concentrations are indicated the figures). Wells were washed twice with FACS buffer and resuspended in 50 μL of secondary Ab (AlexaFluor 488) diluted in FACS buffer. The plate was incubated at 4° C. for one hour and washed twice with FACS buffer. Cells were resuspended in 100 μL of PBS/1% formaldehyde and analyzed on a Becton Dickinson LSRII flow cytometer. Data was analyzed using WinList flow cytometry analysis software.
These variants were further characterized for binding by SPR and as ADCs conjugated to the Bcl-xL inhibitor synthon (linker warhead) CZ. […] An ADC comprising chAb3 conjugated to synthon CZ was used as a control.

Human full length B7-H3 [7] = target: T1, Human full length B7-H3; test: FACS, 3T12 transfectants; remark: listed apart in the source

B1: huAb13v9 (antibody, V domains shown)
VH: EVQLQESGPGLVKPSETLSLTCAVSGYSITSGYSWHWIRQPPGNGLEWMGYIHSSGSTNYNPSLKSRITISRDTSKNQFSLKLSSVTAADTAVYYCARYDDYFEYWGQGTTVTVSS
VL: DIQMTQSPSSLSASVGDRVTITCKASQNVGFNVAWYQQKPGKAPKLLIYSASYRYSGVPSRFSGSGSGTDFTLTISSLQPEDFATYFCQQYNWYPFTFGQGTKLEIK
notes: humanized IgG
binding result (Human full length B7-H3 [1]): no binding

B2: huAb13v8 (antibody, V domains shown)
VH: EVQLQESGPGLVKPSETLSLTCAVSGYSITSGYSWHWIRQPPGNGLEWMGYIHSSGSTNYNPSLKSRITISRDTSKNQFSLKLSSVTAADTAVYYCARYDDYFEYWGQGTTVTVSS
VL: DIQMTQSPSSLSASVGDRVTITCKASQNVGFNVAWYQQKPGKSPKALIYSASYRYSGVPSRFSGSGSGTDFTLTISSLQPEDFAEYFCQQYNWYPFTFGQGTKLEIK
notes: humanized IgG
binding result (Human full length B7-H3 [1]): no binding

B3: huAb13v4 (antibody, V domains shown)
VH: EVQLQESGPGLVKPSETLSLTCAVSGYSITSGYSWHWIRQPPGKGLEWIGYIHSSGSTNYNPSLKSRVTISVDTSKNQFSLKLSSVTAADTAVYYCARYDDYFEYWGQGTTVTVSS
VL: DIQMTQSPSSLSASVGDRVTITCKASQNVGFNVAWYQQKPGKAPKLLIYSASYRYSGVPSRFSGSGSGTDFTLTISSLQPEDFATYFCQQYNWYPFTFGQGTKLEIK
notes: humanized IgG
binding result (Human full length B7-H3 [1]): no binding

B4: huAb13v7 (antibody, V domains shown)
VH: EVQLQESGPGLVKPSETLSLTCAVSGYSITSGYSWHWIRQPPGNGLEWMGYIHSSGSTNYNPSLKSRITISRDTSKNQFSLKLSSVTAADTAVYYCARYDDYFEYWGQGTTVTVSS
VL: DIQMTQSPSSLSASVGDRVTITCKASQNVGFNVAWYQQKPGKAPKLLIYSASYRYSGVPSRFSGSGSGTDFTLTISSLQPEDFATYYCQQYNWYPFTFGQGTKLEIK
notes: humanized IgG
binding result (Human full length B7-H3 [1]): no binding

B5: huAb13v3 (antibody, V domains shown)
VH: EVQLQESGPGLVKPSETLSLTCAVSGYSITSGYSWHWIRQPPGKGLEWIGYIHSSGSTNYNPSLKSRVTISVDTSKNQFSLKLSSVTAADTAVYYCARYDDYFEYWGQGTTVTVSS
VL: DIQMTQSPSSLSASVGDRVTITCKASQNVGFNVAWYQQKPGKSPKALIYSASYRYSGVPSRFSGSGSGTDFTLTISSLQPEDFAEYFCQQYNWYPFTFGQGTKLEIK
notes: humanized IgG
binding result (Human full length B7-H3 [1]): no binding

B6: huAb13v2 (antibody, V domains shown)
VH: EVQLQESGPGLVKPSETLSLTCAVSGYSITSGYSWHWIRQPPGKGLEWIGYIHSSGSTNYNPSLKSRVTISVDTSKNQFSLKLSSVTAADTAVYYCARYDDYFEYWGQGTTVTVSS
VL: DIQMTQSPSSLSASVGDRVTITCKASQNVGFNVAWYQQKPGKAPKLLIYSASYRYSGVPSRFSGSGSGTDFTLTISSLQPEDFATYYCQQYNWYPFTFGQGTKLEIK
notes: humanized IgG
binding result (Human full length B7-H3 [1]): no binding

B7: huAb3v2.6-CZ (antibody, human IgG1, kappa, L234A L235A, V domains shown)
VH: EVQLVQSGAEVKKPGSSVKVSCKASGYTFSSYWMHWVRQAPGQGLEWIGLIHPESGSTNYNEMFKNRATLTVDRSTSTAYMELSSLRSEDTAVYYCAGGGRLYFDYWGQGTTVTVSS
VL: DIVMTQSPLSLPVTPGEPASISCRSSQSLVHSNQDTYLRWYLQKPGQSPQLLIYKVSNRFSGVPDRFSGSGSGTDFTLKISRVEAEDVGVYYCSQSTHVPYTFGGGTKVEIKR
modifications: synthon CZ on reduced interchain Cys
EC50 [2]: 0.09 nM
EC50 nM H1650 (tumor cell cytotoxicity) (Human full length B7-H3 [3]): 0.4 nM
EC50 (Human full length B7-H3 [4]): 5.64 nM
EC50 [5]: 3.31 nM

B8: huAb3v2.2-CZ (antibody, V domains shown)
VH: EVQLVQSGAEVKKPGSSVKVSCKASGYTFSSYWMHWVRQAPGQGLEWIGLIHPWSGSTNYNEMFKNRATLTVDRSTSTAYMELSSLRSEDTAVYYCAGGGRLYFDYWGQGTTVTVSS
VL: DIVMTQSPLSLPVTPGEPASISCRSSQSLVHSNRDTYLRWYLQKPGQSPQLLIYKVSNRFSGVPDRFSGSGSGTDFTLKISRVEAEDVGVYYCSQSTHVPYTFGGGTKVEIK
modifications: synthon CZ on reduced interchain Cys
notes: ADC, DAR 0.7
EC50 [2]: 0.1 nM
EC50 (Human full length B7-H3 [4]): 5.29 nM
EC50 [5]: 3.68 nM

B9: huAb3v2-CZ (antibody, V domains shown)
VH: EVQLVQSGAEVKKPGSSVKVSCKASGYTFSSYWMHWVRQAPGQGLEWIGLIHPDSGSTNYNEMFKNRATLTVDRSTSTAYMELSSLRSEDTAVYYCAGGGRLYFDYWGQGTTVTVSS
VL: DIVMTQSPLSLPVTPGEPASISCRSSQSLVHSNGDTYLRWYLQKPGQSPQLLIYKVSNRFSGVPDRFSGSGSGTDFTLKISRVEAEDVGVYYCSQSTHVPYTFGGGTKVEIK
modifications: synthon CZ on reduced interchain Cys
EC50 [2]: 0.44 nM
EC50 (Human full length B7-H3 [6]): 0.73 nM
EC50 (Human full length B7-H3 [4]): 5.11 nM
EC50 [5]: 2.87 nM

B10: huAb3v2.9-CZ (antibody, V domains shown)
VH: EVQLVQSGAEVKKPGSSVKVSCKASGYTFSSYWMHWVRQAPGQGLEWIGLIHPISGSTNYNEMFKNRATLTVDRSTSTAYMELSSLRSEDTAVYYCAGGGRLYFDYWGQGTTVTVSS
VL: DIVMTQSPLSLPVTPGEPASISCRSSQSLVHSNQDTYLRWYLQKPGQSPQLLIYKVSNRFSGVPDRFSGSGSGTDFTLKISRVEAEDVGVYYCSQSTHVPYTFGGGTKVEIK
modifications: synthon CZ on reduced interchain Cys
notes: ADC, DAR 2.7
EC50 [2]: 0.16 nM
EC50 (Human full length B7-H3 [4]): 6.16 nM
EC50 [5]: 4.64 nM

B11: huAb3v2.2 (antibody, V domains shown)
VH: EVQLVQSGAEVKKPGSSVKVSCKASGYTFSSYWMHWVRQAPGQGLEWIGLIHPWSGSTNYNEMFKNRATLTVDRSTSTAYMELSSLRSEDTAVYYCAGGGRLYFDYWGQGTTVTVSS
VL: DIVMTQSPLSLPVTPGEPASISCRSSQSLVHSNRDTYLRWYLQKPGQSPQLLIYKVSNRFSGVPDRFSGSGSGTDFTLKISRVEAEDVGVYYCSQSTHVPYTFGGGTKVEIK
notes: humanized IgG
binding result (Human full length B7-H3 [7]): binds

B12: huAb3v2.8 (antibody, V domains shown)
VH: EVQLVQSGAEVKKPGSSVKVSCKASGYTFSSYWMHWVRQAPGQGLEWIGLIHPISGSTNYNEMFKNRATLTVDRSTSTAYMELSSLRSEDTAVYYCAGGGRLYFDYWGQGTTVTVSS
VL: DIVMTQSPLSLPVTPGEPASISCRSSQSLVHSNRDTYLRWYLQKPGQSPQLLIYKVSNRFSGVPDRFSGSGSGTDFTLKISRVEAEDVGVYYCSQSTHVPYTFGGGTKVEIK
notes: humanized IgG
binding result (Human full length B7-H3 [7]): binds

B13: huAb3v2.9 (antibody, V domains shown)
VH: EVQLVQSGAEVKKPGSSVKVSCKASGYTFSSYWMHWVRQAPGQGLEWIGLIHPISGSTNYNEMFKNRATLTVDRSTSTAYMELSSLRSEDTAVYYCAGGGRLYFDYWGQGTTVTVSS
VL: DIVMTQSPLSLPVTPGEPASISCRSSQSLVHSNQDTYLRWYLQKPGQSPQLLIYKVSNRFSGVPDRFSGSGSGTDFTLKISRVEAEDVGVYYCSQSTHVPYTFGGGTKVEIK
notes: humanized IgG
binding result (Human full length B7-H3 [7]): binds

B14: huAb3v2.3 (antibody, V domains shown)
VH: EVQLVQSGAEVKKPGSSVKVSCKASGYTFSSYWMHWVRQAPGQGLEWIGLIHPWSGSTNYNEMFKNRATLTVDRSTSTAYMELSSLRSEDTAVYYCAGGGRLYFDYWGQGTTVTVSS
VL: DIVMTQSPLSLPVTPGEPASISCRSSQSLVHSNQDTYLRWYLQKPGQSPQLLIYKVSNRFSGVPDRFSGSGSGTDFTLKISRVEAEDVGVYYCSQSTHVPYTFGGGTKVEIK
notes: humanized IgG
binding result (Human full length B7-H3 [7]): binds
